In one experiment the target is T1, EPOR (UniProt P19235 25-508, limits assumed).
T1 sequence (looked up): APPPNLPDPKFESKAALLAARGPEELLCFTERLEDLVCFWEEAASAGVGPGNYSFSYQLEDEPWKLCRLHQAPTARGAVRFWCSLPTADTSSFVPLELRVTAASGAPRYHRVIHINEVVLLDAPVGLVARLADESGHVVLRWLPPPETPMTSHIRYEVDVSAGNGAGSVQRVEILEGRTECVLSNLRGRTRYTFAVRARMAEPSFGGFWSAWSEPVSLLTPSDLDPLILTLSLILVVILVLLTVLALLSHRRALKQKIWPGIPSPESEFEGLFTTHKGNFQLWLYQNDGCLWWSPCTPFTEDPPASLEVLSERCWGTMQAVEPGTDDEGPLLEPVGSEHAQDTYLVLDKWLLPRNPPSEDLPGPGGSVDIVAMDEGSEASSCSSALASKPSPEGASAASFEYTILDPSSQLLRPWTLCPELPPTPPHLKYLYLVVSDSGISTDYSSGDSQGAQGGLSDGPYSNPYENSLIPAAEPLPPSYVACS
Nature of the experiment: cell-based or functional assay.

For a further experiment, the target named is Met (UniProt P08581 25-1390, limits assumed). Kind of experiment: cell-based or functional assay.
Chain of Met (P08581 25-1390 limits assumed): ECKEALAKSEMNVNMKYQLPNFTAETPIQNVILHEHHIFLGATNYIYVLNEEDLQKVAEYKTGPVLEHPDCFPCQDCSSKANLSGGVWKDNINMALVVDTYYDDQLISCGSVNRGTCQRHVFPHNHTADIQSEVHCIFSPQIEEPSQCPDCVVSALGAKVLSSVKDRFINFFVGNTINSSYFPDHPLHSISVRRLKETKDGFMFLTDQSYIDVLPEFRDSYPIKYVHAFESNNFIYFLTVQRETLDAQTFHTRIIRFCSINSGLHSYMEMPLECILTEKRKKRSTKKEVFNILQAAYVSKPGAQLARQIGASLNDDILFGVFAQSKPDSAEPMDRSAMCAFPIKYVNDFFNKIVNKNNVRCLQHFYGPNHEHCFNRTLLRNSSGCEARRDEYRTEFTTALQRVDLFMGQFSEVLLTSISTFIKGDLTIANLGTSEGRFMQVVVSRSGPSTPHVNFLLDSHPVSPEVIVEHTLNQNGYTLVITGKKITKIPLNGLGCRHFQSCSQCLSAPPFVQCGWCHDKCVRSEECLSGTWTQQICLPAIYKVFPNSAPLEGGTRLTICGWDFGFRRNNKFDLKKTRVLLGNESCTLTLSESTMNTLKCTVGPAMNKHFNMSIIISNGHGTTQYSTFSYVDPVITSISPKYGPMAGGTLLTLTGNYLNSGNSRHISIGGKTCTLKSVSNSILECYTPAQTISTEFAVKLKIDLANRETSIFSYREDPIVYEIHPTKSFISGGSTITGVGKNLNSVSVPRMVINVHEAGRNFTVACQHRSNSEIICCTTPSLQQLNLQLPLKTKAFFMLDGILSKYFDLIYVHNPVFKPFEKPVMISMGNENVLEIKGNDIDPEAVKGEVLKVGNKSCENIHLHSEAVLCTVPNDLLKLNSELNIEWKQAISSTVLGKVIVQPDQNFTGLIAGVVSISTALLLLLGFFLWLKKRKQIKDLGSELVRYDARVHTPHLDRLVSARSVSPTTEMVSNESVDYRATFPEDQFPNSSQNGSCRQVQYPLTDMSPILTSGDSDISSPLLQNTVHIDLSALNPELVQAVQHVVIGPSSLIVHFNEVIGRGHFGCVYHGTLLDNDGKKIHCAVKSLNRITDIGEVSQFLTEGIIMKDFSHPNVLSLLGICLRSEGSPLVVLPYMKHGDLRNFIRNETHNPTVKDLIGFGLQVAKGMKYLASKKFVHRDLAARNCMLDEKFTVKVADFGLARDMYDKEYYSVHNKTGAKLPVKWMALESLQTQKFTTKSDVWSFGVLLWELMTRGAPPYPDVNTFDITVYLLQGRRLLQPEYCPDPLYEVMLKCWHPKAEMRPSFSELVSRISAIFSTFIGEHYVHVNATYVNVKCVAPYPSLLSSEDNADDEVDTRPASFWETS

Where no end group is shown, it is not given here. [ ]: non-standard residue; d: D form. Phe(4-N3) = [N-]=[N+]=Nc1ccc(C[C@H](N)C(=O)O)cc1

B1: L1-AzF-EPO-PA22 PEG-modified using m-dPEG24-DBCO (peptide)
chain: AETGGLYACHMGPMTWVCQPLRGAAPAAPAPAAPA[Phe(4-N3)](m‑dPEG24‑DBCO)APAPAAPAAPGGLYACHMGPMTWVCQPLRG
In the case of B1, the “reporter activity (PathHunter eXpress EpoR-JAK2 Functional Assay, chemiluminescence relative to Mock); PEG+ sample, 1000-fold diluted” value in the experiment with EPOR is > 1.5 times that of Mock.

B2: L1-AzF-aMD4dY-PA22 (peptide)
chain: AETCRQFNRRTHEVWNLDCGAAPAAPAPAAPA[Phe(4-N3)]APAPAAPAAPGCRQFNRRTHEVWNLDC
modifications: cysteine pairing not given here
Turning to B2, the “reporter activity (SRE reporter, firefly/Renilla luciferase, HEK293 cells, relative to Mock); PEG- sample, 2500-fold diluted” value with Met was > 10 times that of Mock.

B3: WT-aMD4dY-PA22 (peptide)
chain: AETCRQFNRRTHEVWNLDCGAAPAAPAPAAPAAPAPAAPAAPGCRQFNRRTHEVWNLDC
Take B3: in the experiment with Met, the “reporter activity (SRE reporter, firefly/Renilla luciferase, HEK293 cells, relative to Mock); PEG+ sample (WT treated with m-dPEG24-DBCO, not modified), 2500-fold diluted” value was > 10 times that of Mock and the “reporter activity (SRE reporter, firefly/Renilla luciferase, HEK293 cells, relative to Mock); PEG- sample, 2500-fold diluted” value is > 10 times that of Mock.

B4: L2-AzF-aMD4dY-PA22 (peptide)
chain: AETCRQFNRRTHEVWNLDCGAAPAAPAPAA[Phe(4-N3)]AAPAPAAPAAPGCRQFNRRTHEVWNLDC
modifications: cysteine pairing not given here
With B4, the “reporter activity (SRE reporter, firefly/Renilla luciferase, HEK293 cells, relative to Mock); PEG- sample, 2500-fold diluted” value with Met is > 10 times that of Mock.

B5: L2-AzF-EPO-PA22 PEG-modified using m-dPEG24-DBCO (peptide)
chain: AETGGLYACHMGPMTWVCQPLRGAAPAAPAPAA[Phe(4-N3)](m‑dPEG24‑DBCO)AAPAPAAPAAPGGLYACHMGPMTWVCQPLRG
As for B5, the “reporter activity (PathHunter eXpress EpoR-JAK2 Functional Assay, chemiluminescence relative to Mock); PEG+ sample, 1000-fold diluted” value with EPOR was > 1.5 times that of Mock.

B6: N-AzF-EPO-PA22 PEG-modified using m-dPEG24-DBCO (peptide)
chain: AET[Phe(4-N3)](m‑dPEG24‑DBCO)GGLYACHMGPMTWVCQPLRGAAPAAPAPAAPAAPAPAAPAAPGGLYACHMGPMTWVCQPLRG
In the case of B6, the “reporter activity (PathHunter eXpress EpoR-JAK2 Functional Assay, chemiluminescence relative to Mock); PEG+ sample, 1000-fold diluted” value with EPOR is > 1.5 times that of Mock.

B7: L1-AzF-aMD4dY-PA22 PEG-modified using m-dPEG24-DBCO (peptide)
chain: AETCRQFNRRTHEVWNLDCGAAPAAPAPAAPA[Phe(4-N3)](m‑dPEG24‑DBCO)APAPAAPAAPGCRQFNRRTHEVWNLDC
modifications: cysteine pairing not given here
Take B7: the “reporter activity (SRE reporter, firefly/Renilla luciferase, HEK293 cells, relative to Mock); PEG+ sample, 2500-fold diluted” value in the experiment with Met was > 10 times that of Mock.

B8: N-AzF-EPO-PA22 (peptide)
chain: AET[Phe(4-N3)]GGLYACHMGPMTWVCQPLRGAAPAAPAPAAPAAPAPAAPAAPGGLYACHMGPMTWVCQPLRG
For B8, the “reporter activity (PathHunter eXpress EpoR-JAK2 Functional Assay, chemiluminescence relative to Mock); PEG- sample, 1000-fold diluted” value in the experiment with EPOR is > 1.5 times that of Mock.

B9: WT-EPO-PA22 (peptide)
chain: AETGGLYACHMGPMTWVCQPLRGAAPAAPAPAAPAAPAPAAPAAPGGLYACHMGPMTWVCQPLRG
On to B9, for which, in the experiment with EPOR, the “reporter activity (PathHunter eXpress EpoR-JAK2 Functional Assay, chemiluminescence relative to Mock); PEG+ sample (WT treated with m-dPEG24-DBCO, not modified), 1000-fold diluted” value is > 1.5 times that of Mock and the “reporter activity (PathHunter eXpress EpoR-JAK2 Functional Assay, chemiluminescence relative to Mock); PEG- sample, 1000-fold diluted” value is > 1.5 times that of Mock.

B10: L1-AzF-EPO-PA22 (peptide)
chain: AETGGLYACHMGPMTWVCQPLRGAAPAAPAPAAPA[Phe(4-N3)]APAPAAPAAPGGLYACHMGPMTWVCQPLRG
Regarding B10, the “reporter activity (PathHunter eXpress EpoR-JAK2 Functional Assay, chemiluminescence relative to Mock); PEG- sample, 1000-fold diluted” value with EPOR is > 1.5 times that of Mock.

B11: N-AzF-aMD4dY-PA22 PEG-modified using m-dPEG24-DBCO (peptide)
chain: AET[Phe(4-N3)](m‑dPEG24‑DBCO)CRQFNRRTHEVWNLDCGAAPAAPAPAAPAAPAPAAPAAPGCRQFNRRTHEVWNLDC
modifications: cysteine pairing not given here
As for B11, in the experiment with Met, the “reporter activity (SRE reporter, firefly/Renilla luciferase, HEK293 cells, relative to Mock); PEG+ sample, 2500-fold diluted” value is > 10 times that of Mock.

B12: L2-AzF-EPO-PA22 (peptide)
chain: AETGGLYACHMGPMTWVCQPLRGAAPAAPAPAA[Phe(4-N3)]AAPAPAAPAAPGGLYACHMGPMTWVCQPLRG
Turning to B12, in the experiment with EPOR, the “reporter activity (PathHunter eXpress EpoR-JAK2 Functional Assay, chemiluminescence relative to Mock); PEG- sample, 1000-fold diluted” value is > 1.5 times that of Mock.

B13: L2-AzF-aMD4dY-PA22 PEG-modified using m-dPEG24-DBCO (peptide)
chain: AETCRQFNRRTHEVWNLDCGAAPAAPAPAA[Phe(4-N3)](m‑dPEG24‑DBCO)AAPAPAAPAAPGCRQFNRRTHEVWNLDC
modifications: cysteine pairing not given here
For B13, in the experiment with Met, the “reporter activity (SRE reporter, firefly/Renilla luciferase, HEK293 cells, relative to Mock); PEG+ sample, 2500-fold diluted” value was > 10 times that of Mock.

B14: N-AzF-aMD4dY-PA22 (peptide)
chain: AET[Phe(4-N3)]CRQFNRRTHEVWNLDCGAAPAAPAPAAPAAPAPAAPAAPGCRQFNRRTHEVWNLDC
modifications: cysteine pairing not given here
B14: the “reporter activity (SRE reporter, firefly/Renilla luciferase, HEK293 cells, relative to Mock); PEG- sample, 2500-fold diluted” value with Met was > 10 times that of Mock.

Source of the values: US20240209409A1 (AJINOMOTO, published 2024).
